Usually EC50 stands for the midpoint of the concentration-response curve. A lower EC50 goes with higher potency in that assay.

Results on 2 molecules are retold here after patent publication US20150337046A1 (published 2015).

The assay deals with T1, human LIGHT (hLIGHT), cell surface-expressed, full length (UniProt O43557 1-240).
T1 chain: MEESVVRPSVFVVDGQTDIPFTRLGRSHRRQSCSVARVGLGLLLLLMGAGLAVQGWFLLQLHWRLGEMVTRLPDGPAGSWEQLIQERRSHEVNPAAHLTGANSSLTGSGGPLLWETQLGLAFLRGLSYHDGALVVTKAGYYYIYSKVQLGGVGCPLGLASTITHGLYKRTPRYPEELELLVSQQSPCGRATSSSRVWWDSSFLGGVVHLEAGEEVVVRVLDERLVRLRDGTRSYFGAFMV
As to the kind of experiment: FACS binding; 293-hLIGHT cells. On the technique in general: In flow cytometry, cells or beads pass a laser one at a time.

B1: recombinant single kappa chain antibody of E1 heavy chain paired with Elkappa(B) (antibody, V domains shown)
VH: EVQLVESGGGLVQPGGSLRLSCAASGFTFSRFNMNWVRQAPGKGLEWVSYISSSSYTIYYADSVKGRFTISRDNAKNSLDLQMNSLRDEDTAVYYCARSIAAAFDYWGQGALVTVSS
VL: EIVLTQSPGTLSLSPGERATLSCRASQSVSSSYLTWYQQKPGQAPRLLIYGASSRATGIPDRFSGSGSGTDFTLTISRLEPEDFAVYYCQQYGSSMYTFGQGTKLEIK
In the case of B1, it took 0.547 µg/mL to reach a half-maximal effect (EC50).

B2: E1 antibody (produced by hybridoma 124 E1, ATCC Accession No. PTA-7729) (antibody, V domains shown)
VH: EVQLVESGGGLVQPGGSLRLSCAASGFTFSRFNMNWVRQAPGKGLEWVSYISSSSYTIYYADSVKGRFTISRDNAKNSLDLQMNSLRDEDTAVYYCARSIAAAFDYWGQGALVTVSS
VL: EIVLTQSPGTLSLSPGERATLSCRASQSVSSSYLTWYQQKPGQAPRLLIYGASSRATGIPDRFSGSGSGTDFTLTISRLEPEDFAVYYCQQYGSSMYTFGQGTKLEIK
As for B2, the half-maximal effective concentration (EC50) turned out to be 0.463 µg/mL.
